From IntAct's records for PubMed 23374343

B1: Sialic acid-binding Ig-like lectin 10 (Mus musculus), Q80ZE3 (parent)
chain: MSLLLFLLSFLLDGPQGQMESYFLQVQRIVKAQEGLCIFVPCSFSSPEGKWLNRSPLYGYWFKGIRKPSLSFPVATNNKDKVLEWEARGRFQLLGDISKKNCSLLIKDVQWGDSTNYFFRMERGFERFSFKEEFRLQVEALTQKPDIFIPEVLEPGEPVTVVCLFSWTFNQCPAPSFSWMGDAVSFQESRPHTSNYSVLSFIPGLQHHDTELTCQLDFSRMSTQRTVRLRVAYAPRSLAISIFHDNVSVPDLHENPSHLEVQQGQSLRLLCTADSQPPATLSWVLEDQVLSWSSPVGSRTLALELPWVKAGDSGHYTCQAENRLGSQQHTLDLSVLYPPQDLRVTVSQANRTVLEILRNAISLPVLEGQSLCLVCVTYSNPPANVSWAWVTQTLIPIQSSEPGVLELPLVQREHEGEFTCAAQNPLGAQRISLSLSVHYPPQMSSPSCSWEAKGLHCNCSSRAWPAPSLRWRLGEGLLEGNSSNASFTVTFSSLGPWVNSSLSLLQELGPSLWLSCESWNTHGAQTTSVLLLPDKDSATAFSKGAVLGFGITALLALCLIVVIVKTLQKKGTQEEPSRPKLSRGSTILDYINVVPKTRSLARNWKAEPDAPSRSSPLDTHFPKPKKKQKDPHFTYPGCPDPTSSSQVPVSENNPEELHYAALNFSRLRLQETQDPQDTYSDYTEVRVH
partner: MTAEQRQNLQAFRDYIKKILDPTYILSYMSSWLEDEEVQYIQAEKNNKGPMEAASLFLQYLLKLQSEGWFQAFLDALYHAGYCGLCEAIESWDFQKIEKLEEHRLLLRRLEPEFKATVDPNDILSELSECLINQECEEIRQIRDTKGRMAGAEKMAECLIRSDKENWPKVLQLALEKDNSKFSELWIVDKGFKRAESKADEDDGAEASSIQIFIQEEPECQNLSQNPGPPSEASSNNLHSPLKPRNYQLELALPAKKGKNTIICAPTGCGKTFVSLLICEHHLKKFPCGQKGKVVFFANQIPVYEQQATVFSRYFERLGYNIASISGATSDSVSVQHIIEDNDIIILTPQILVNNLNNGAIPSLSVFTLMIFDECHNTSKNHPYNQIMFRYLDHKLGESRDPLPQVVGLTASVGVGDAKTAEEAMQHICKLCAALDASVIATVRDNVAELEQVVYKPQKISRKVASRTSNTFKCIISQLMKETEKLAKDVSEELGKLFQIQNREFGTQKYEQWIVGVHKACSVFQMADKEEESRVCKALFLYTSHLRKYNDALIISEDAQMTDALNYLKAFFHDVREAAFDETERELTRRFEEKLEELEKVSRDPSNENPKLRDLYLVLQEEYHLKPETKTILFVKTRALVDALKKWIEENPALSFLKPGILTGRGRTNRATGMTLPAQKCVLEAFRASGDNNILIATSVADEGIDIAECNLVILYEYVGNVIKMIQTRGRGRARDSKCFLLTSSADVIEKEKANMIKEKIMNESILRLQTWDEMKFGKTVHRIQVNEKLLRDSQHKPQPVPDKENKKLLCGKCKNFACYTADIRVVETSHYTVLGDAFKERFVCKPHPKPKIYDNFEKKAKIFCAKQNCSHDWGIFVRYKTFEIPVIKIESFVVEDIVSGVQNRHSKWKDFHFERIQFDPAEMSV

Variants of: B1
Conditions: with rigi_mouse Rigi

| effect of a mutation on the interaction | Variant |
| --- | --- |
| decreasing interaction strength | Y590F;Y635F;Y659F;Y679F |
